Measured values from FireProtDB.
Where “and” joins values, the source holds several entries; their conditions need not be identical. Equal entries are not always repeated.

Conditions: whole UniProt chain shown; for denaturant midpoint (higher = more stable) / denaturant m value / unfolding free energy: GdnHCl
[1] = Homo sapiens, pH 8, 25 °C, CD, Tris-Hcl, transition: 2
[2] = Homo sapiens, pH 8, 25 °C, fluorescence, Tris-Hcl, transition: 2
[3] = Homo sapiens, pH 8.1, Thermal, DSC, Tris-HCl 20 mM
[4] = Homo sapiens, pH 4, 25 °C, CD, Tris sodium acetate MES 50 mM 20 mM 20 mM
[5] = Homo sapiens, pH 7, 25 °C, CD, Tris sodium acetate MES 50 mM 20 mM 20 mM
[6] = Homo sapiens, pH 7, 37 °C, CD, Sodium phosphate 100 mM, reversible: Yes
[7] = Hordeum vulgare, pH 6.3, 25 °C, DSC, MES-NaOH 50 mM, reversible: yes
[8] = Hordeum vulgare, pH 6.3, 25 °C, Fluorescence, Sodium phosphate 20 mM
[9] = Hordeum vulgare, pH 7, 25 °C, CD, Sodium phosphate 10 mM, reversible: yes
[10] = Hordeum vulgare, pH 7, 30 °C, Fluorescence, MOPS 50 mM
[11] = Hordeum vulgare, pH 7.4, 25 °C, CD, Tris 50 mM

B1: Gamma-crystallin D wild type, P07320 (protein)
chain: MGKITLYEDRGFQGRHYECSSDHPNLQPYLSRCNSARVDSGCWMLYEQPNYSGLQYFLRRGDYADHQQWMGLSDSVRSCRLIPHSGSHRIRLYEREDYRGQMIEFTEDCSCLQDRFRFNEIHSLNVLEGSWVLYELSNYRGRQYLLMPGDYRRYQDWGATNARVGSLRRVIDFS
**Q.** For B1, which “denaturant midpoint (higher = more stable)” value (“denaturant midpoint” for short) (Homo sapiens, pH 7, 25 °C, Fluorescence, NaPO4 10 mM, reversible: yes) is on record?
**A.** Its value is 3.7 M.

**Q.** And the “denaturant midpoint” value (Homo sapiens, pH 7, 37 °C, Fluorescence, NaPO4 10 mM, reversible: yes)?
**A.** Its value is 2.7 M.

**Q.** What about the Tm (Homo sapiens, pH 7, Thermal, ANS fluorescence, PBS, transition: 2, reversible: yes) of the same protein?
**A.** Its Tm is 76.6 °C.

**Q.** What about the Tm (Homo sapiens, pH 7, Thermal, CD, PBS, transition: 2, reversible: yes) of the same protein?
**A.** Its Tm is 80 °C.

B2: Sphingosine kinase 1 wild type, Q9NYA1 (protein)
chain: MDPAGGPRGVLPRPCRVLVLLNPRGGKGKALQLFRSHVQPLLAEAEISFTLMLTERRNHARELVRSEELGRWDALVVMSGDGLMHEVVNGLMERPDWETAIQKPLCSLPAGSGNALAASLNHYAGYEQVTNEDLLTNCTLLLCRRLLSPMNLLSLHTASGLRLFSVLSLAWGFIADVDLESEKYRRLGEMRFTLGTFLRLAALRTYRGRLAYLPVGRVGSKTPASPVVVQQGPVDAHLVPLEEPVPSHWTVVPDEDFVLVLALLHSHLGSEMFAAPMGRCAAGVMHLFYVRAGVSRAMLLRLFLAMEKGRHMEYECPYLVYVPVVAFRLEPKDGKGVFAVDGELMVSEAVQGQVHPNYFWMVSGCVEPPPSWKPQQMPPPEEPL
**Q.** Which denaturant m value [1] does the source give for B2 here?
**A.** Its denaturant m value is 0.42 kcal/mol/M.

**Q.** What about the “denaturant midpoint” value [1] of the same protein?
**A.** The value was 2.86 M.

**Q.** And the unfolding free energy [1]?
**A.** Its unfolding free energy is 5.52 kJ/mol.

**Q.** And the denaturant m value [2]?
**A.** The denaturant m value was 0.6 kcal/mol/M.

**Q.** What about the “denaturant midpoint” value [2] of the same protein?
**A.** The value was 2.94 M.

**Q.** And the unfolding free energy [2]?
**A.** The unfolding free energy was 7.32 kJ/mol.

B3: Cystatin-A wild type, P01040 (protein)
chain: MIPGGLSEAKPATPEIQEIVDKVKPQLEEKTNETYGKLEAVQYKTQVVAGTNYYIKVRAGDNKYMHLKVFKSLPGQNEDLVLTGYQVDKNKDDELTGF
**Q.** For B3, which Tm [3] is on record?
**A.** Its Tm is 94.5 °C.

**Q.** And the “heat capacity change of unfolding” value [3]?
**A.** Its value is 1.5 kcal/mol/K.

**Q.** And the “unfolding enthalpy (calorimetric)” value [3]?
**A.** Its value is 510 kJ/mol.

B4: Interleukin-2 wild type, Q7Z7M3 (protein)
chain: MPTSSSTKKTQLQLEHLLLDLQMILNGINNYKNPKLTRMLTFKFYMPKKATELKHLQCLEEELKPLKEVLNLAQSKNFHLRPRDLISNINVIVLELKGSETTFMCEYADETATIVEFLNRWITFSQSIISTLT
**Q.** For B4, which “denaturant midpoint” value [4] is on record?
**A.** Its value is 4.4 M.

**Q.** What about the unfolding free energy [4] of the same protein?
**A.** The unfolding free energy was 41.4 kJ/mol.

**Q.** And the “denaturant midpoint” value [5]?
**A.** The value was 3.8 M.

**Q.** And the unfolding free energy [5]?
**A.** The unfolding free energy was 38.9 kJ/mol.

B5: Gamma-crystallin S wild type, P22914 (protein)
chain: MSKTGTKITFYEDKNFQGRRYDCDCDCADFHTYLSRCNSIKVEGGTWAVYERPNFAGYMYILPQGEYPEYQRWMGLNDRLSSCRAVHLPSGGQYKIQIFEKGDFSGQMYETTEDCPSIMEQFHMREIHSCKVLEGVWIFYELPNYRGRQYLLDKKEYRKPIDWGAASPAVQSFRRIVE
**Q.** With B5 as the protein, how does the denaturant m value [6] read?
**A.** The denaturant m value was 4.6 kcal/mol/M and 2.9 kcal/mol/M.

**Q.** And the “denaturant midpoint” value [6]?
**A.** Its value is 2.3 M and 1.7 M.

**Q.** What about the unfolding free energy [6] of the same protein?
**A.** Its unfolding free energy is 43.9 kJ/mol and 20.5 kJ/mol.

**Q.** What about the Tm (Homo sapiens, pH 7.4, Thermal, Fluorescence, Disodium phosphate, NaCl) of the same protein?
**A.** Its Tm is 67.5 °C and 65.8 °C.

B6: wild type, Q40059 (protein)
chain: MSSMEKKPEGVNIGAGDRQNQKTEWPELVGKSVEEAKKVILQDKPAAQIIVLPVGTIVTMEYRIDRVRLFVDRLDNIAQVPRVG
**Q.** What does the source list for B6?
**A.** Tm (Hordeum vulgare, pH 4.15, Thermal, CD, acetate 10 mM, reversible: no): 74.3 °C; denaturant m value [7]: 1.76 kcal/mol/M; denaturant midpoint (higher = more stable) [7]: 4.05 M; unfolding free energy [7]: 30 kJ/mol; denaturant m value [8]: 1.96 kcal/mol/M and 2.01 kcal/mol/M; unfolding free energy [8]: 31 kJ/mol and 30.4 kJ/mol and 30.2 kJ/mol

B7: Subtilisin-chymotrypsin inhibitor-2A wild type, P01053 (protein)
chain: MSSVEKKPEGVNTGAGDRHNLKTEWPELVGKSVEEAKKVILQDKPEAQIIVLPVGTIVTMEYRIDRVRLFVDKLDNIAQVPRVG
**Q.** With B7 as the protein, how does the unfolding free energy (Hordeum vulgare, pH 4.2, 50 °C, Fluorescence, Sodium acetate 50 mM, reversible: yes) read?
**A.** The unfolding free energy was 23 kJ/mol.

**Q.** What about the unfolding free energy (Hordeum vulgare, pH 6.3, 17 °C, Fluorescence, MES 10 mM, reversible: yes) of the same protein?
**A.** Its unfolding free energy is 31.3 kJ/mol.

**Q.** And the unfolding free energy (Hordeum vulgare, pH 6.3, 21 °C, Fluorescence, MES 10 mM, reversible: yes)?
**A.** Its unfolding free energy is 30.5 kJ/mol.

**Q.** What about the unfolding free energy (Hordeum vulgare, pH 6.3, 25 °C, Fluorescence, MES 10 mM, reversible: yes) of the same protein?
**A.** Its unfolding free energy is 29.5 kJ/mol.

**Q.** What about the unfolding free energy (Hordeum vulgare, pH 6.3, 29 °C, Fluorescence, MES 10 mM, reversible: yes) of the same protein?
**A.** Its unfolding free energy is 28.3 kJ/mol.

**Q.** And the unfolding free energy (Hordeum vulgare, pH 6.3, 32 °C, Fluorescence, MES 10 mM, reversible: yes)?
**A.** Its unfolding free energy is 27.3 kJ/mol.

**Q.** And the denaturant m value [9]?
**A.** The denaturant m value was 1.77 kcal/mol/M.

**Q.** What about the “denaturant midpoint” value [9] of the same protein?
**A.** Its value is 3.97 M.

**Q.** And the unfolding free energy [9]?
**A.** The unfolding free energy was 29.5 kJ/mol.

**Q.** And the denaturant m value [10]?
**A.** The denaturant m value was 1.92 kcal/mol/M.

**Q.** And the unfolding free energy [10]?
**A.** The unfolding free energy was 29.5 kJ/mol.

**Q.** What about the denaturant m value [11] of the same protein?
**A.** Its denaturant m value is 1.82 kcal/mol/M.

**Q.** And the “denaturant midpoint” value [11]?
**A.** The value was 4.29 M.

**Q.** And the unfolding free energy [11]?
**A.** The unfolding free energy was 32.7 kJ/mol.
